Laboratory results: patent US20190330277A1 (PIRBRIGHT INSTITUTE, published 2019)

Tests used:
[1] = molecular target: T1, RB94 hu/bov DS-CAV1 A149C-Y458C Long; test: ELISA, variant from culture supernatant on Ni-NTA plate;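 note: antigenic evaluation of variants transiently transfected and expressed in 96-well plate cell cultures at 37 °C, 5% CO2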
T1 construct: also called DS2-v7
Procedure: (§1) Initial assessment of all constructs were performed using a 96-well microplate format for high throughput expression followed by an ELISA-based antigenic evaluation as described previously 17. […] Plasmid DNA and TrueFect-Max (United BioSystems, MD) were mixed and added to the growing cells, and the 96-well plate incubated at 37° C., 5% CO2. One day post transfection, enriched medium (high glucose DMEM plus 25% ultra-low IgG fetal bovine serum, 2× nonessential amino acids, 1× glutamine) was added to each well, and the 96-well plate was returned to the incubator for continuous culture.

[2] = molecular target: T2, 391-2-DS-Cav1-sc9deleteFS 98C-361C; test: as above
T2 construct: also called DS2-v8
Procedure: as §1

[3] = molecular target: T3, RB94 sc9 DS-CAV1 N183GC-N428C L373R Long S190V; test: as above
T3 construct: also called DS2-v13
Procedure: as §1

[4] = molecular target: T4, 391-2-DS-Cav1-sc9deleteFS 99C-361C; test: as above
T4 construct: also called DS2-v15
Procedure: as §1

[5] = molecular target: T5, 391-2-DS-Cav1-sc9deleteFS 99C-362C; test: as above
T5 construct: also called DS2-v16
Procedure: as §1

[6] = molecular target: T6, RB94 dscav1T369C-T455C Long S190V; test: as above
T6 construct: also called DS2-v18
Procedure: as §1

[7] = molecular target: T7, 391-2-DS-Cav1-sc9 100C-361C; test: as above
T7 construct: also called DS2-v19
Procedure: as §1

[8] = molecular target: T8, RB94 sc9 DS-CAV1 A149C-Y458C L373R; test: as above
T8 construct: also called DS2-v20
Procedure: as §1

[9] = molecular target: T9, 391-2-DS-Cav1-sc9deleteFS 100C-362C; test: as above
T9 construct: also called DS2-v21
Procedure: as §1

[10] = molecular target: T10, RB94 sc9 DS-CAV1 A149C-Y458C L373R Long; test: as above
T10 construct: also called DS2-v22
Procedure: as §1

[11] = molecular target: T11, 391-2-DS-Cav1_ sc9_S398C-S485C; test: as above
T11 construct: also called DS2-v23
Procedure: as §1

[12] = molecular target: T12, RB94 sc9 DS-CAV1 A149C-Y458C L373R Long K226L; test: as above
T12 construct: also called DS2-v24
Procedure: as §1

[13] = molecular target: T13, 391-2-DS-Cav1_ S398C-S485C; test: as above
T13 construct: also called DS2-v25
Procedure: as §1

[14] = molecular target: 391-2-DS-Cav1_ I28C-G464C; test: as above
Procedure: as §1

[15] = molecular target: T14, 391-2-DS-Cav1_ sc9_I395C-A490C; test: as above
T14 construct: also called DS2-v27
Procedure: as §1

[16] = molecular target: T15, 391-2-DS-Cav1_ sc9_S485C-A490C; test: as above
T15 construct: also called DS2-v28
Procedure: as §1

[17] = molecular target: T16, 391-2-DS-Cav1-sc9deleteFS 100C-361C; test: as above
T16 construct: also called DS2-v29
Procedure: as §1

[18] = molecular target: T17, RB94 sc9 DS-CAV1 A149C-Y458C L373R Long S190V; test: as above
T17 construct: also called DS2-v30
Procedure: as §1

[19] = molecular target: T18, 391-2-DS-Cav1_ sc9_T449C-V459C; test: as above
T18 construct: also called DS2-v31
Procedure: as §1

[20] = molecular target: T19, RB94 DS-CAV1 T369C-T455C Long; test: as above
T19 construct: also called DS2-v32
Procedure: as §1

391-2_DS-Cav1-tzsc4 [21] = molecular target: T20, 391-2_DS-Cav1-tzsc4; test: ELISA, variant from culture supernatant on Ni-NTA plate [continued]
T20 construct: also called sc-v39
Procedure: as §1

[22] = molecular target: T21, sc9-10_DS-CAV1_bRSV(RB94)_Fd_fp1_ig1; test: as above
T21 construct: also called sc-v44
Procedure: as §1

391-2-DS-Cav1-BZGJ9_gyc3 = molecular target: T22, 391-2-DS-Cav1-BZGJ9_gyc3; test: as above
T22 construct: also called sc-v45
Procedure: as §1

391-2-DS-Cav1-IP-7 = molecular target: T23, 391-2-DS-Cav1-IP-7; test: as above
T23 construct: also called sc-v46
Procedure: as §1

391-2-DS-Cav1-BZGJ9 = molecular target: T24, 391-2-DS-Cav1-BZGJ9; test: as above
T24 construct: also called sc-v47
Procedure: as §1

391-2-DS-Cav1-SC-IP-1 = molecular target: T25, 391-2-DS-Cav1-SC-IP-1; test: as above
T25 construct: also called sc-v49
Procedure: as §1

KXds2 = molecular target: T26, KXds2; test: as above
T26 construct: also called sc-v50
Procedure: as §1

391-2_DS-Cav1-tzsc4 [23] = molecular target: T27, 391-2_DS-Cav1-tzsc4; test: as above
T27 construct: also called sc-v51
Procedure: as §1

391-2-DS-Cav1-BZGJ9_gyc4 = molecular target: T28, 391-2-DS-Cav1-BZGJ9_gyc4; test: as above
T28 construct: also called sc-v53
Procedure: as §1

391-2-DS-Cav1-BZGJ9_gyc6 = molecular target: T29, 391-2-DS-Cav1-BZGJ9_gyc6; test: as above
T29 construct: also called sc-v55
Procedure: as §1

391-2_DS-Cav1-tzsc6 = molecular target: T30, 391-2_DS-Cav1-tzsc6; test: as above
T30 construct: also called sc-v58
Procedure: as §1

[24] = molecular target: T31, 391-2-DS-Cav1-BZGJ9_gyc10; test: as above
T31 construct: also called sc-v60
Procedure: as §1

B1: MPE8 antibody (antibody, V domains shown)
VH: EVQLVESGGGLVKPGGSLRLSCAASGFTFSSYSMNWVRQAPGKGLEWVSSISASSSYSDYADSAKGRFTISRDNAKTSLFLQMNSLRAEDTAIYFCARARATGYSSITPYFDIWGQGTLVTVSS
VL: QSVVTQTPSVSGAPGQRVTISCTGSSSNIGAGYDVHWYQQLPGTAPKLLIYDNNNRPSGVPDRFSASKSGTSASLAITGLQAEDEADYYCQSYDRNLSGVFGTGTKVTVL
notes: also called mAb MPE8
For B1, which ELISA binding value [1] is on record?
Its ELISA binding value is 0.29.

What about the ELISA binding value [2] of the same binder?
The ELISA binding value was 0.43.

And the ELISA binding value [3]?
The ELISA binding value was 0.155.

What about the ELISA binding value [4] of the same binder?
Its ELISA binding value is 0.229.

And the ELISA binding value [5]?
The ELISA binding value was 0.2.

And the ELISA binding value [6]?
Its ELISA binding value is 0.371.

And the ELISA binding value [7]?
Its ELISA binding value is 0.173.

And the ELISA binding value [8]?
The ELISA binding value was 0.154.

What about the ELISA binding value [9] of the same binder?
The ELISA binding value was 0.0757.

And the ELISA binding value [10]?
The ELISA binding value was 0.0692.

And the ELISA binding value [11]?
Its ELISA binding value is 0.0849.

And the ELISA binding value [12]?
Its ELISA binding value is 0.0872.

What about the ELISA binding value [13] of the same binder?
The ELISA binding value was 0.0824.

And the ELISA binding value [14]?
The ELISA binding value was 0.0815.

And the ELISA binding value [15]?
Its ELISA binding value is 0.0919.

And the ELISA binding value [16]?
The ELISA binding value was 0.0579.

What about the ELISA binding value [17] of the same binder?
The ELISA binding value was 0.0592.

What about the ELISA binding value [18] of the same binder?
Its ELISA binding value is 0.0477.

And the ELISA binding value [19]?
The ELISA binding value was 0.1.

What about the ELISA binding value [20] of the same binder?
The ELISA binding value was 0.0667.

What about the ELISA binding value (391-2_DS-Cav1-tzsc4 [21]) of the same binder?
The ELISA binding value was 0.263.

What about the ELISA binding value [22] of the same binder?
The ELISA binding value was 0.0965.

And the ELISA binding value (391-2-DS-Cav1-BZGJ9_gyc3)?
Its ELISA binding value is 0.123.

What about the ELISA binding value (391-2-DS-Cav1-IP-7) of the same binder?
Its ELISA binding value is 0.0761.

What about the ELISA binding value (391-2-DS-Cav1-BZGJ9) of the same binder?
The ELISA binding value was 0.0926.

And the ELISA binding value (391-2-DS-Cav1-SC-IP-1)?
The ELISA binding value was 0.155.

What about the ELISA binding value (KXds2) of the same binder?
The ELISA binding value was 0.143.

What about the ELISA binding value (391-2_DS-Cav1-tzsc4 [23]) of the same binder?
The ELISA binding value was 0.096.

What about the ELISA binding value (391-2-DS-Cav1-BZGJ9_gyc4) of the same binder?
Its ELISA binding value is 0.0901.

What about the ELISA binding value (391-2-DS-Cav1-BZGJ9_gyc6) of the same binder?
The ELISA binding value was 0.0866.

And the ELISA binding value (391-2_DS-Cav1-tzsc6)?
The ELISA binding value was 0.0583.

What about the ELISA binding value [24] of the same binder?
Its ELISA binding value is 0.0498.

B2: D25 antibody (antibody, V domains shown)
VH: QVQLVQSGAEVKKPGSSVMVSCQASGGPLRNYIINWLRQAPGQGPEWMGGIIPVLGTVHYAPKFQGRVTITADESTDTAYIHLISLRSEDTAMYYCATETALVVSTTYLPHYFDNWGQGTLVTVSS
VL: DIQMTQSPSSLSAAVGDRVTITCQASQDIVNYLNWYQQKPGKAPKLLIYVASNLETGVPSRFSGSGSGTDFSLTISSLQPEDVATYYCQQYDNLPLTFGGGTKVEIK
notes: also called mAb D25
For B2, which ELISA binding value [1] is on record?
Its ELISA binding value is 0.274.

What about the ELISA binding value [2] of the same binder?
The ELISA binding value was 0.271.

And the ELISA binding value [3]?
Its ELISA binding value is 0.206.

What about the ELISA binding value [4] of the same binder?
Its ELISA binding value is 0.198.

What about the ELISA binding value [5] of the same binder?
Its ELISA binding value is 0.197.

What about the ELISA binding value [6] of the same binder?
Its ELISA binding value is 0.182.

And the ELISA binding value [7]?
The ELISA binding value was 0.181.

What about the ELISA binding value [8] of the same binder?
The ELISA binding value was 0.175.

And the ELISA binding value [9]?
Its ELISA binding value is 0.16.

And the ELISA binding value [10]?
The ELISA binding value was 0.158.

What about the ELISA binding value [11] of the same binder?
Its ELISA binding value is 0.144.

What about the ELISA binding value [12] of the same binder?
Its ELISA binding value is 0.144.

What about the ELISA binding value [13] of the same binder?
Its ELISA binding value is 0.141.

And the ELISA binding value [14]?
The ELISA binding value was 0.139.

What about the ELISA binding value [15] of the same binder?
The ELISA binding value was 0.136.

What about the ELISA binding value [16] of the same binder?
The ELISA binding value was 0.136.

And the ELISA binding value [17]?
The ELISA binding value was 0.133.

What about the ELISA binding value [18] of the same binder?
Its ELISA binding value is 0.133.

What about the ELISA binding value [19] of the same binder?
Its ELISA binding value is 0.133.

What about the ELISA binding value [20] of the same binder?
The ELISA binding value was 0.129.

And the ELISA binding value (391-2_DS-Cav1-tzsc4 [21])?
The ELISA binding value was 0.219.

And the ELISA binding value [22]?
Its ELISA binding value is 0.191.

What about the ELISA binding value (391-2-DS-Cav1-BZGJ9_gyc3) of the same binder?
Its ELISA binding value is 0.164.

And the ELISA binding value (391-2-DS-Cav1-IP-7)?
Its ELISA binding value is 0.201.

And the ELISA binding value (391-2-DS-Cav1-BZGJ9)?
The ELISA binding value was 0.183.

What about the ELISA binding value (391-2-DS-Cav1-SC-IP-1) of the same binder?
The ELISA binding value was 0.0985.

And the ELISA binding value (KXds2)?
The ELISA binding value was 0.109.

What about the ELISA binding value (391-2_DS-Cav1-tzsc4 [23]) of the same binder?
The ELISA binding value was 0.138.

What about the ELISA binding value (391-2-DS-Cav1-BZGJ9_gyc4) of the same binder?
The ELISA binding value was 0.138.

What about the ELISA binding value (391-2-DS-Cav1-BZGJ9_gyc6) of the same binder?
Its ELISA binding value is 0.135.

What about the ELISA binding value (391-2_DS-Cav1-tzsc6) of the same binder?
The ELISA binding value was 0.138.

What about the ELISA binding value [24] of the same binder?
Its ELISA binding value is 0.136.
